Test results taken from US20100292442A1.

Tests used:
[1] = target: huIL-17RA-FLAG-polyHis (human) (UniProt Q96F46); assay: Luminex binning; bead huIgG control (f15) + IL-17RA; self pair (boxed) [D00007 Fig. 8B]
[2] = target: huIL-17RA-FLAG-polyHis (human) (UniProt Q96F46); assay: Luminex binning; bead mAb J holds IL-17RA

Q: huIgG (antibody) was tested. Which normalized MFI [1] did it give?
A: 65

Q: And the normalized MFI [2]?
A: 42
